Target: GDP-bound KRAS4b-farnesyl (farnesylated, not carboxy-methylated) (UniProt P01116)
Experiment: ITC

“calmodulin (CaM), full-length, amino acids 2-148 (from UniProt P0DP23 2-148) (natural protein)” showed a Kd of 1500 nM.
